Consider 15 molecules from patent US20230348572A1 (ROSALIND FRANKLIN INSTITUTE, published 2023).

Numbering of substitutions follows the chain as printed. Where two headings read alike, the source gives them in different places.

Assay [1] has as its target T1, SARS-CoV-2 Spike receptor binding domain (RBD, amino acids 330-532) (SARS-CoV-2, UniProt P0DTC2 330-532).
T1 construct: range 330-532
The assay can be described thus: phage ELISA on biotinylated RBD captured on neutravidin, anti-M13-HRP.

Assay [2] addresses T2, RBD-Fc (SARS-CoV-2; human, UniProt P0DTC2 330-532).
The target of assay [3] is T2, RBD-Fc. This is another data set of the same source.
Assay [4] addresses T2, RBD-Fc. The assay can be described thus: SPR single-cycle kinetics, RBD-Fc on Protein A chip, nanobody as analyte.
Assay [5] concerns the target T2, RBD-Fc. This is another data set of the same source.
Assay [6] concerns the target T1, SARS-CoV-2 Spike receptor binding …. The assay can be described thus: ITC, nanobody titrated into RBD, 25 °C, 1:1 stoichiometry.
For assay [7] the target is unchanged. The assay can be described thus: ITC, RBD in the cell, H11-H4 in the syringe.
Assay [8] shares this target.
In assay [9] the target is T2, RBD-Fc. As to the kind of experiment: SPR, single-cycle kinetics, RBD-Fc immobilized, H11-D4 as analyte, run i).
In assay [10] the target is T2, RBD-Fc. The assay can be described thus: SPR, single-cycle kinetics, RBD-Fc immobilized, H11-D4 as analyte, run ii).
The target of assay [11] is T1, SARS-CoV-2 Spike receptor binding …. This is another data set of the same source.

B1: NbRBD_D1 (VHH)
VHH: QVQLVESGGGLVQPGGSLRLSCAASGFTFSSYGMSWVRQAPGKGLEWVSGINSGGGSTSYADSVKGRFTISRDNAKNTLYLQMNSLKSEDTAVYYCAKDASEDAGRLYWTDYWGQGTQVTVSS
As for B1, in [1], the “ELISA A405” value is more than 1.5.

B2: NbRDB_E11 (VHH)
VHH: QVQLVESGGGLVQPGGSLRLSCAASGFTFSNYAMTWVRQAPGKGLEWISDIGSDGRHPAYADSVKGRYTISRDNAKNTLYLQMNSLKPEDTAMYYCLPGWSTVGTFLDAWGQGTQVTVSS
Consider B2, for which the “ELISA A405” value in assay [1] was more than 1.5.

B3: NbRBD_B11 (VHH)
VHH: QVQLVESGGGLVQPGGSLRLSCAASGFTFDDYAMSWVRQAPGKGLEWVSNIYSYISTTHYADSVKGRFTISTDNAKNTLYLQMNSLKPEDTAVYYCAARRLDTTDYKYWGQGTQVTVSS
Regarding B3, the “ELISA A405” value in assay [1] was more than 1.5.

B4: NbRBD_B4 (VHH)
VHH: QVQLVESGGGLVQPGGSLRLSCAASGFTFSSYWMYWVRQAPGKGLEWVSVINTGGDTTYYADSVKGRFTISRDNDENTLSLQMNSLKPEDTALYYCARTGVVRGPGDLDAWGQGTQVTVSS
In the case of B4, in assay [1], the “ELISA A405” value was more than 1.5.

B5: NbRBD_G11 (VHH)
VHH: QVHLVESGGGLVQPGGSLRLSCAASGFTFDDYGMTWVRQAPGKGLEWVSAVNSGGGTSYADSVKGRFTISRDNAKNTLYLQMNSLKPEDTAVYYCAKRDGSWWGYTTDYWGKGTQVTVSS
Consider B5, for which, in assay [1], the “ELISA A405” value was more than 1.5.

B6: NbRBD_F5 (VHH)
VHH: QVQLVESGGGLVQAGGSLRLSCAASGTIFRINAMAWYRQAPGKQRELVAIISNGDSGDSTNYADSVKGRFTISRDSAKNTVYLQMNSLKPEDTAVYYCNVEASWPHKYWGQGTQVTVSS
For the molecule B6, the “ELISA A405” value in assay [1] is more than 1.5.

B7: NbRBD_A7 (VHH)
VHH: QVQLVESGGGLVQPGGSLRLSCAASGFTFDDYAMSWVRQAPGKGLEWVSAISWNGGGTYYAESMKGRFTISRDNAKNTLYLQMNSLKSEDTAVYYCAKDFHRYGSSTLEYDYWGQGTQVTVSS
With B7, in [1], the “ELISA A405” value is more than 1.5.

B8: NbRBD_F9 (VHH)
VHH: QVQLVESGGGLVQPGGSLRVSCAASGFTFSSYFMSWVRQAPGKQRELVATIGDRGNTNYADSVKGRFTISRDNAKNTVYLQMNSLKPEDTAVYYCYSRNRILQHYWGQGTQVTVSS
For the molecule B8, the “ELISA A405” value in assay [1] was more than 1.5.

B9: NbRBD_C7 (VHH)
VHH: QVQLVESGGGLVQPGGSLRLSCAASGFTFSSYDMSWVRQAPGKGLEWVSGISGSDSTTVYSDSVKDRFTISRDNAKNTLYLQMNKLKPEDTALYYCARPLGQYTSWGQGTQVTVSS
As for B9, the “ELISA A405” value in assay [1] is more than 1.5.

B10: NbRBD_C10 (VHH)
VHH: QVQLVESGGGLVQPGGSLRLSCAASGFAFSSYDMSWVRQAPGKGLEWVSAIDSGGGVTYYADSMKGRFTISRDNAKNTVYLQMNSLKPEDTAVYYCNAVDGLGYLEYDYWGQGTQVTVSS
Turning to B10, the “ELISA A405” value in [1] is more than 1.5.

B11: NbRBD_G7 (VHH)
VHH: QVQLVESGGGLVQPGGSLRLSCATSGFTFDTYDMSWVRQAPGNGPEWVSAEDSTGNKFYADSVKGRFAISRDNARNTLYLQMNSLTSEDTAVYYCAKGLRSWGAWGQGTQVTVSS
B11: the “ELISA A405” value in [1] was more than 1.5.

B12: NbRBD_H11 (VHH)
VHH: QVQLVESGGGLMQAGGSLRLSCAVSGRTFSTAAMGWFRQAPGKEREFVAAIRWSGGSAYYADSVKGRFTISRDKAKNTVYLQMNSLKYEDTAVYYCAQTRVTRSLLSDYATWPYDYWGQGTQVTVSS
notes: also called nanobody H11; Nb H11
As for B12, the Kd with RBD-Fc [2] is 378 nM; with RBD-Fc [3] it was less than 1000 nM. For the same molecule, the “ELISA A405” value in assay [1] was more than 1.5.

B13: NbRBD_H11-H4 (VHH)
VHH: B12 VHH with R100H, V101Y, T102V, R103S, S104Y
notes: also called nanobody H11-H4
In the case of B13, the Kd with RBD-Fc [4] was approximately 5 nM; with RBD-Fc [5], 5.5 nM; in assay [6], 12 nM; in assay [8], 11.8 nM. In addition, the ΔH was -67 kJmol-1 in [7] and -69 kJmol-1 in assay [8]. Also, the figures for the ΔS in assay [7] and in assay [8] were -80 Jmol-1K-1 and -79 Jmol-1K-1, respectively.

B14: NbRBD_H11-D4 (VHH)
VHH: B12 VHH with Q98R, R100E, V101N, T102V
notes: also called nanobody H11-D4
As for B14, the Kd with RBD-Fc [4] was approximately 10 nM; in [6], 39 nM; with RBD-Fc [9], 9 nM; with RBD-Fc [10], 10 nM; in [11] it was 39.2 nM. In addition, the ΔH in assay [11] was -76.1 kJmol-1. In assay [11], the ΔS was -114 Jmol-1K-1.

B15: NbRBD_G9 (VHH)
VHH: QVQLVESGGGLVQPGGSLRLSCAASGFTFYDYHMSWVRQAPGKGLEWVSGIDTGGGRTYAADSVKGRFTISRDNAKNTLYLQMNSLKSEDTALYYCVRDGDARGPDYDYWGQGTMVTVSS
With B15, the “ELISA A405” value in assay [1] is more than 1.5.
